B1: N-terminally PEGylated C35A-3/15 (NH2-PEG4-…-NH2) (peptide)
peptide: {NH2‑PEG4}-DCAYHRGELVWCT-NH2
modifications: not fully specified (bridges); printed as NH2-PEG4-DCAYHRGELVWCT-NH2; cysteine pairing not given here; also: coupled through PEG4 amine to HiTrap NHS-activated HP column

Ends that are not written are not given here. NH2‑PEG4 = N-terminal amino-PEG4 group (N-terminal PEGylation)

One assay deals with human IgG (human). The assay can be described thus: SPR, synthetic peptide. (In SPR one partner is held on a chip, and binding of the other changes the refractive index at the surface.)
The term Kd denotes the constant that tells how readily two partners part at equilibrium. For GPRCAYHRGELVWCSFH [C35A (D3R, T15S)], the Kd turned out to be 0.042 µM and the ratio of Kd against C35A-3/15 (D3R, T15S) was 0.333 fold. With DCTYTNGDLVWCT [GFc-C35-3/15 (N10D)], the Kd was found to be 80 µM.

For DCTWTNGNLVWCT [GFc-C35-3/15 (Y6W)], the Kd turned out to be 50 µM.

For GPDCAYHRGELVWCTFH [C35A], the equilibrium dissociation constant (Kd) is 0.009 µM and the ratio of Kd against C35A-3/15 was found to be 0.2 fold. In turn, DCTYTLGNLVWCT [GFc-C35-3/15 (N8L)] yielded a Kd of 260 µM. Consider DCTFTNGNLVWCT [GFc-C35-3/15 (Y6F)], for which the Kd came to 2100 µM. Consider DCTYHNGNLVWCT [GFc-C35-3/15 (T7H)], for which the equilibrium dissociation constant (Kd) is 3 µM and the fold increase of affinity against GFc-C35-3/15 amounted to 50 fold.

In turn, DCTYSNGNLVWCT [GFc-C35-3/15 (T7S)] registered a dissociation constant Kd of 26 µM. This counts as double-digit micromolar. The same measure, in the same setting: under DCTYTNGNLVWCT [GFc-C35-3/15] stands 130 µM; under DCTYRNGNLVWCT [GFc-C35-3/15 (T7R)], 83 µM. In the case of DCTYTNGNLIWCT [GFc-C35-3/15 (V12I)], the dissociation constant Kd was 12 µM and the ratio of Kd against GFc-C35-3/15 is 0.1 fold.

Take DCAYTNGNLVWCT [GFc-C35-3/15 (T5A)]: the Kd came to 61 µM. On to DCTYTRGNLVWCT [GFc-C35-3/15 (N8R)], for which the dissociation constant (Kd) was determined as 8 µM and the fold decrease of Kd against GFc-C35-3/15 was found to be 18 fold. In turn, DCTYHRGNLIWCT [GFc-C35-3/15 (T7H, N8R, V12I)] had a Kd of 4.8 µM.

PDCTYTNGNLVWCTF [GFc-C35-2/16] came in with a Kd of 25 µM. As for DCTYTNGELVWCT [GFc-C35-3/15 (N10E)], the Kd was 26 µM. Still for that read-out and setting: the result for RCTYTNGNLVWCT [GFc-C35-3/15 (D3R)] reads 69 µM; that for GPDCTYTNGNLVWCTFH (not fully specified (bridges); cysteine pairing not given here) [GFc-C35], 14 µM; that for DCTYHRGELVWCT [GFc-C35-3/15 (T7H, N8R, N10E)], 0.27 µM. For the molecule DCTYTNGNLVWCS [GFc-C35-3/15 (T15S)], the Kd came out at 34 µM and the ratio of Kd against GFc-C35-3/15 is 0.25 fold. The molecule RCAYHRGELVWCS [GFc-C35-3/15 (D3R, T5A, T7H, N8R, N10E, T15S)] registered a Kd of 0.147 µM.

Turning to DCAWHRGELVWCT [GFc-C35-3/15 (T5A, Y6W, T7H, N8R, N10E)], the Kd is 0.26 µM. In turn, DCAYHRGNLVWCT [GFc-C35-3/15 (T7H, N8R, T5A)] yielded a Kd of 0.25 µM. With DCTYTNGNMVWCT [GFc-C35-3/15 (L11M)], the Kd turned out to be 280 µM and the ratio of Kd against GFc-C35-3/15 was found to be 2 fold. DCSYTNGNLVWCT [GFc-C35-3/15 (T5S)]: the Kd turned out to be 120 µM. In turn, DCAYHRGELVWCT (not fully specified (bridges); cysteine pairing not given here) [GFc-C35-3/15 (T5A, T7H, N8R, N10E)] gave a Kd of 0.054 µM and a fold higher affinity than GFc-C35-3/15 of 2400 fold. On to DCTYTNGRLVWCT [GFc-C35-3/15 (N10R)], for which the Kd was determined as 42 µM. For the molecule DCTWHRGNLVWCT [GFc-C35-3/15 (T7H, N8R, Y6W)], the Kd came out at 2 µM. On to DCTYHRGNLVWCT [GFc-C35-3/15 (T7H, N8R)], for which the equilibrium dissociation constant (Kd) is 1.1 µM. In turn, DCTYTNGQLVWCT [GFc-C35-3/15 (N10Q)] returned a Kd of 160 µM.

A further assay has as its target human IgG (human). The assay is described as follows: SPR sensorgram analysis.
The term koff denotes a measure of how fast the partners let go of each other. A higher koff goes with a short-lived complex. The term kon denotes the rate constant with which the complex forms. For the molecule DCAWHRGELVWCT [GFc-C35-3/15 (T5A, Y6W, T7H, N8R, N10E)], the equilibrium dissociation constant (Kd) worked out at 0.257 µM; the off-rate constant (koff) was 0.014 s⁻¹; the kon was determined as 54000 M⁻¹ s⁻¹; the ratio of ka against GFc-C35-3/15 (T5A, T7H, N8R, N10E) was under 0.125 fold. Moreover, the ratio of kd against GFc-C35-3/15 (T5A, T7H, N8R, N10E) is 0.5 fold. With DCAYHRGELVWCT (not fully specified (bridges); cysteine pairing not given here) [GFc-C35-3/15 (T5A, T7H, N8R, N10E)], the koff worked out at 0.025 s⁻¹, the on-rate constant (kon) was determined as 460000 M⁻¹ s⁻¹ and the ratio of Kd against GFc-C35-3/15 stood at 0.0417 fold.

The target in a further assay is human IgG (human). The assay can be described thus: SPR, synthetic peptide on human IgG.
GPDCAYHRGELVWCSFH [C35A (T15S)] registered a Kd of 0.0144 µM.

Consider GPSCAYHRGELVWCTFH [C35A (D3S)], for which the Kd amounted to 0.0285 µM. Turning to SPDCAYHRGELVWCTFH [C35A (G1S)], the dissociation constant (Kd) amounted to 0.0093 µM. Still for that read-out and setting: under SDDCAYHRGELVWCTFY (not fully specified; cysteine pairing not given here) [C35A (P2D, H17Y)] stands 0.013 µM. In turn, GPDCAYHRGELVWCTHH [C35A (F16H)] yielded a Kd of 0.0114 µM. SPDCAYHRGELVWCTFY [C35A (G1S, H17Y)] had a dissociation constant (Kd) of 0.011 µM. Still for that read-out and setting: under GDDCAYHRGELVWCTFH [C35A (P2D)] stands 0.0133 µM; under GPDCAYHRGELVWCTFY [C35A (H17Y)], 0.012 µM.

Another assay concerns the target human IgG (human). The assay is described as follows: affinity column with 1.2 µmol immobilized peptide, 1 mL human serum applied, elution at pH 2.5, absorbance.
B1 yielded a protein yield of the eluted fraction D of 10.4 mg.

Source of the values: patent publication US20140274790A1.
